In patent US20210171647A1:

What was measured:
[1] = target: human CD40 (hPro40) on transfected 293F cells (human) (UniProt P25942); experiment: FACS, transfected 293F cells, antibody 2 ug/mL
[2] = target: human OX40, full-length, on cells (human) (UniProt P43489); experiment: FACS, transfected 293F cells, antibody 2 ug/mL
[3] = target: mouse OX40 (mPro1) on transfected 293F cells (mouse) (UniProt P47741); experiment: FACS, transfected 293F cells, antibody 2 ug/mL
[4] = target: human OX40 extracellular domain (ECD) protein (human) (UniProt P43489); experiment: SPR, Biacore T200, antibody captured, OX40 as analyte
[5] = target: human OX40, full-length, on cells (human) (UniProt P43489); experiment: flow cytometry on activated human CD4+ T cells
[6] = target: human OX40, full-length, on cells (human) (UniProt P43489); experiment: flow cytometry on human OX40 transfected CHO-K1 cells
[7] = target: human OX40, full-length, on cells (human) (UniProt P43489); experiment: flow cytometry, CHO-K1 cells expressing human OX40, MESF beads
[8] = target: human OX40 extracellular domain (ECD) protein (human) (UniProt P43489); experiment: competition ELISA: human OX40 ECD coated, antibody titrated in a mix with a constant concentration of OX40L, bound OX40L detected at OD450
[9] = target: human OX40, full-length, on cells (human) (UniProt P43489); experiment: flow cytometry, MFI against antibody concentration; neither the legend nor paragraph 266 names the cells, target taken as cell-surface human OX40 because the antibodies are anti-OX40
[10] = target: human OX40 extracellular domain (ECD) protein (human) (UniProt P43489); experiment: epitope binning by competition against labelled BMK10 on human OX40 (self-competition control); the antibody named in the legend box is titrated; the text describes an ELISA, the axis on the sheet reads MFI
[11] = target: xPro1.FL-x10: CRDmox40_1,2,4 (human; mouse) (UniProt P47741); experiment: FACS, transfected 293F cells, antibody 1 ug/mL
[12] = target: xPro1.FL-x11: CRDmox40_1,3,4 (human; mouse) (UniProt P47741); experiment: FACS, transfected 293F cells, antibody 1 ug/mL
[13] = target: xPro1.FL-x1: CRDmox40_1 (human; mouse) (UniProt P47741); experiment: FACS, transfected 293F cells, antibody 1 ug/mL
[14] = target: xPro1.FL-x3: CRDmox40_3 (human; mouse) (UniProt P43489); experiment: FACS, transfected 293F cells, antibody 1 ug/mL
[15] = target: xPro1.FL-x4: CRDmox40_4 (human; mouse) (UniProt P43489); experiment: FACS, transfected 293F cells, antibody 1 ug/mL
[16] = target: xPro1.FL-x5: CRDmox40_1-2 (human; mouse) (UniProt P47741); experiment: FACS, transfected 293F cells, antibody 1 ug/mL
[17] = target: xPro1.FL-x6: CRDmox40_2-3 (human; mouse) (UniProt P43489); experiment: FACS, transfected 293F cells, antibody 1 ug/mL
[18] = target: xPro1.FL-x7: CRDmox40_3-4 (human; mouse) (UniProt P43489); experiment: FACS, transfected 293F cells, antibody 1 ug/mL
[19] = target: xPro1.FL-x8: CRDmox40_1-3 (human; mouse) (UniProt P47741); experiment: FACS, transfected 293F cells, antibody 1 ug/mL
[20] = target: xPro1.FL-x9: CRDmox40_2-4 (human; mouse) (UniProt P43489); experiment: FACS, transfected 293F cells, antibody 1 ug/mL
[21] = target: xPro1.FL.x2: CRDmox40_2 (human; mouse) (UniProt P43489); experiment: FACS, transfected 293F cells, antibody 1 ug/mL
Chain of xPro1.FL.x2: CRDmox40_2 (human; mouse) (P43489 other isoform, or with tags, fused parts or gaps, form in doubt): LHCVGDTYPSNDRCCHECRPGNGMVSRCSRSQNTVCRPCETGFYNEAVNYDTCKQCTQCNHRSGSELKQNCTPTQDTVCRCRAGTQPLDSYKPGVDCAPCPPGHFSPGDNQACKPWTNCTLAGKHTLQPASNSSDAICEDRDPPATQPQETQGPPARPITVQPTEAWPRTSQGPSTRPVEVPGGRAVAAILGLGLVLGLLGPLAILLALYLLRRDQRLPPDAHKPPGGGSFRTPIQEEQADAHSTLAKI

Chain of xPro1.FL-x6: CRDmox40_2-3 (human; mouse) (P43489 other isoform, or with tags, fused parts or gaps, form in doubt): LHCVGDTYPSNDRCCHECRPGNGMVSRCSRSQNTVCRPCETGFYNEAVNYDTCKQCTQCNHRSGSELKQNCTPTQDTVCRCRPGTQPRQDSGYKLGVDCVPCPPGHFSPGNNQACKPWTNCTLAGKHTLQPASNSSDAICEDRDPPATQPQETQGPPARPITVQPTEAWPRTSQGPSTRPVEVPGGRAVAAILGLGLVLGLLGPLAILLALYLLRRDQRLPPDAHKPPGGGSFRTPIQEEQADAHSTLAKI
Chain of xPro1.FL-x3: CRDmox40_3 (human; mouse) (P43489 other isoform, or with tags, fused parts or gaps, form in doubt): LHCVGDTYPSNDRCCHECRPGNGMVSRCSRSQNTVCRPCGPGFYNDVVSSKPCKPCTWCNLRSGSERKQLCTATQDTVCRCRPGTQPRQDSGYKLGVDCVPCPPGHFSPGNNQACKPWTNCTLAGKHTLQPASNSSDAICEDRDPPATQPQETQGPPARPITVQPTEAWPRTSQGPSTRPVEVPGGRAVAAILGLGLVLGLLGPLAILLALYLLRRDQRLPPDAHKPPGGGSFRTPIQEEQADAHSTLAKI
Chain of xPro1.FL-x9: CRDmox40_2-4 (human; mouse) (P43489 other isoform, or with tags, fused parts or gaps, form in doubt): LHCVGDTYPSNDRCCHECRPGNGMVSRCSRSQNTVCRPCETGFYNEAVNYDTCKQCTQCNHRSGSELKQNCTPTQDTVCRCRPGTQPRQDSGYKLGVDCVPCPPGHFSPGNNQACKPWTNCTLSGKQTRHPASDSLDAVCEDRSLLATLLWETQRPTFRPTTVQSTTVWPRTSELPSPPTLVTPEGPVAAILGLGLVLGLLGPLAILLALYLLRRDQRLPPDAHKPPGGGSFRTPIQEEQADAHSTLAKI
Chain of human OX40 extracellular domain (ECD) protein (human) (P43489 29-214): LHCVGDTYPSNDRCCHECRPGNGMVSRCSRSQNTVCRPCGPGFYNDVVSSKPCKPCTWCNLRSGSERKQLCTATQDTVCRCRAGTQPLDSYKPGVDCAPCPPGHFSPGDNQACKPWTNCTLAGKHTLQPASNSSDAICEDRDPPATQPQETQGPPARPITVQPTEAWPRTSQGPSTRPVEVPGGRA
Chain of xPro1.FL-x7: CRDmox40_3-4 (human; mouse) (P43489 other isoform, or with tags, fused parts or gaps, form in doubt): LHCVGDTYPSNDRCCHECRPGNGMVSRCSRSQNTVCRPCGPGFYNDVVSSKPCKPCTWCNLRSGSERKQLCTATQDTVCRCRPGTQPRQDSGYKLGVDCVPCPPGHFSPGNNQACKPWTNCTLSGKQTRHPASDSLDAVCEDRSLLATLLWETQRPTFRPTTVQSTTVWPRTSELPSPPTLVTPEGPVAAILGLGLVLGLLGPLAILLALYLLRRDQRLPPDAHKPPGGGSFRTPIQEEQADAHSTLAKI
Chain of xPro1.FL-x4: CRDmox40_4 (human; mouse) (P43489 other isoform, or with tags, fused parts or gaps, form in doubt): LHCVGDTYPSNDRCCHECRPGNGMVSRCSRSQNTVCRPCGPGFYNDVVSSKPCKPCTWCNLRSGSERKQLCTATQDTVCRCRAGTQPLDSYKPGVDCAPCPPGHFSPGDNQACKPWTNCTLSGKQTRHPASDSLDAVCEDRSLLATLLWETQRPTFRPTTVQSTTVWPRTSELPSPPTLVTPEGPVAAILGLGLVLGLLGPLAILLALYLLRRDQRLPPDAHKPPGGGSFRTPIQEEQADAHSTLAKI
Chain of human OX40, full-length, on cells (human) (P43489 29-277): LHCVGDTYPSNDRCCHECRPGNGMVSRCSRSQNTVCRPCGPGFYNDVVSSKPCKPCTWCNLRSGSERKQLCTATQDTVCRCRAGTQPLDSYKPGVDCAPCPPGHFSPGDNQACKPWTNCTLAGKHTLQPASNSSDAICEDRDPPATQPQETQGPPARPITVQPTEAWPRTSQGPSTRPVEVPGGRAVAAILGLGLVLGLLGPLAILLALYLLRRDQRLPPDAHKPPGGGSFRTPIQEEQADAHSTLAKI
Chain of human CD40 (hPro40) on transfected 293F cells (human) (P25942 21-277): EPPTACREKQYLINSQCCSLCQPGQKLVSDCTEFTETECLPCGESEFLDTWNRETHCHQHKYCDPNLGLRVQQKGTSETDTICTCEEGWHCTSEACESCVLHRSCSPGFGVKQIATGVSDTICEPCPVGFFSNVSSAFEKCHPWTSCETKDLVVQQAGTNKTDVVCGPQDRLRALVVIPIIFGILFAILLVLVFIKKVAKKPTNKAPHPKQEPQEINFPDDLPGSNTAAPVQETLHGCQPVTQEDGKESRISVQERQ
Chain of mouse OX40 (mPro1) on transfected 293F cells (mouse) (P47741 20-272): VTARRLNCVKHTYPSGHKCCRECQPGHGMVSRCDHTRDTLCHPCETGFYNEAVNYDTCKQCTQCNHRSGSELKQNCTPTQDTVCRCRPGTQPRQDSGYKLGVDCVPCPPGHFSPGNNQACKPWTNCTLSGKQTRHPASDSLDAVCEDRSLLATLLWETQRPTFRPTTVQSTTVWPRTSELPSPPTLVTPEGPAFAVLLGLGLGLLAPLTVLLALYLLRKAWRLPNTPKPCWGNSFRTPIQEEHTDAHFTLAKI

Binder | MFI [11] | PE + % [11] [%] | MFI [12] | PE + % [12] [%] | MFI [13] | PE + % [13] [%] | MFI [14] | PE + % [14] [%] | MFI [15] | PE + % [15] [%] | MFI [16] | PE + % [16] [%] | MFI [17] | PE + % [17] [%] | MFI [18] | PE + % [18] [%] | MFI [19] | PE + % [19] [%] | MFI [20] | PE + % [20] [%] | further results
BMK10 (antibody, from another filing, V domains shown) VH: EVQLVQSGAEVKKPGASVKVSCKASGYTFTDSYMSWVRQAPGQGLEWIGDMYPDNGDSSYNQKFRERVTITRDTSTSTAYLELSSLRSEDTAVYYCVLAPRWYFSVWGQGTLVTVSS VL: DIQMTQSPSSLSASVGDRVTITCRASQDISNYLNWYQQKPGKAPKLLIYYTSRLRSGVPSRFSGSGSGTDFTLTISSLQPEDFATYYCQQGHTLPPTFGQGTKVEIK | – | – | – | – | – | – | – | – | – | – | – | – | – | – | – | – | – | – | – | – | MFI [1]: 28.8; PE + % [1]: 0.068%; MFI [2]: 27600; PE + % [2]: 98.3%; MFI [3]: 5000; PE + % [3]: 91.6%; kon [4]: 442000 M⁻¹ s⁻¹; EC50 (read off the curve) [5]: 700 pM; EC50 (read off the curve) [6]: 600 pM; Kd [7]: 230 pM; IC50 (read off the curve) [8]: 3000 pM; EC50 (read off the curve) [9]: 800 pM; IC50 (read off the curve) [10]: 6000 pM
1.214.23-u1-IgG1K (antibody, V domains shown) VH: QVQLQESGPGLVKPSGTLSLTCVVSGGSISNRNWWSWVRQPPGKGLEWIGEIFHSGNTNYNPSLKSRVTISVDKSKNQFSLKVNSVTAADTAVYYCAKSFAVALDSWGQGTLVTVSS VL: DIQLTQSPSFLSASVGDRVTITCRASQDINSYLAWCQQKPGKAPKLLIYAASSLQSGVPSRFSGTGSGTEFTLTISSLQPEDFATYYCQQLFSYPITFGQGTRLEIK | 19600 | 94.4 | 6260 | 70.8 | 5420 | 82.9 | 2250 | 70 | 23200 | 97.7 | 21700 | 96.5 | 113 | 2.31 | 6540 | 81.5 | 42.6 | 0.743 | 80.1 | 0.244 | MFI [21]: 23300; PE + % [21]: 92.8%
1.134.9-u1-IgG1L (antibody, V domains shown) VH: QVQLQESGPGLVKPSGTLSLTCAVSGGSISSYNWWSWVRQPPGKGLEWIGEIYHGGNTNYNPSLKSRVTMSVDNSKNQFSLKLSSVTAADTAVYYCARAPGDWGGSPYFDFWGQGTLVTVSS VL: SSELTQDPAVSVALGQTVRITCQGDNLRTYYASWYQQKPGQAPILLIYGRNKRPSGIPDRFSGSSSGNTASLTITGAQAEDEAAYYCNSRDSSGNPVVFGGGTKLTVL | 42.7 | 0.624 | 9400 | 74 | 6440 | 75.3 | 3800 | 66.1 | 24100 | 96.6 | 61 | 1.73 | 211 | 6.75 | 9160 | 80.3 | 43.2 | 0.678 | 44.1 | 0.668 | MFI [21]: 49.5; PE + % [21]: 0.904%
